Laboratory results from article PMC9525683, “Structural analysis of human CEACAM1 oligomerization” (Communications Biology, 2022).

Target: the molecule itself
Assay: crystal structure; tagless hCEACAM1 IgV at 15 mg/ml; sitting drop, 25 °C; 0.2 M ammonium sulfate, 0.1 M HEPES pH 7.5, 25% w/v PEG 3350; space group C121; 2.2 Å; three molecules in the asymmetric unit

B1: human CEACAM1 IgV domain, wild type (tagless) (domain or fragment)
chain: QLTTESMPFNVAEGKEVLLLVHNLPQQLFGYSWYKGERVDGNRQIVGYAIGTQQATPGPANSGRETIYPNASLLIQNVTQNDTGFYTLQVIKSDLVNEEATGQFHVY
notes: carcinoembryonic antigen-related cell adhesion molecule 1 (CEACAM1), human, N-terminal IgV domain, non-glycosylated; The 15N-labelled form (M9 medium) was used for NMR, the unlabelled form for the crystals and UV spectroscopy; also called hCEACAM1 IgV; hCEACAM1 WT
binding result: binds
